Laboratory results taken from patent US20080096792A1 (SEOUL NATIONAL UNIVERSITY INDUSTRY FOUNDATION, published 2008).

Legend:
[1] = molecular target: integrin α3β1 on HOK-16B cells (human (HOK-16B human oral keratinocytes)) (UniProt P26006); test: cell-based or functional assay
[2] = molecular target: integrin α3β1 on HOK-16B cells (human (HOK-16B human oral keratinocytes), UniProt P26006 33-1051; P05556 21-798); test: cell-based or functional assay
Sequence of integrin α3β1 on HOK-16B cells (P26006 33-1051, chain 1 of 2): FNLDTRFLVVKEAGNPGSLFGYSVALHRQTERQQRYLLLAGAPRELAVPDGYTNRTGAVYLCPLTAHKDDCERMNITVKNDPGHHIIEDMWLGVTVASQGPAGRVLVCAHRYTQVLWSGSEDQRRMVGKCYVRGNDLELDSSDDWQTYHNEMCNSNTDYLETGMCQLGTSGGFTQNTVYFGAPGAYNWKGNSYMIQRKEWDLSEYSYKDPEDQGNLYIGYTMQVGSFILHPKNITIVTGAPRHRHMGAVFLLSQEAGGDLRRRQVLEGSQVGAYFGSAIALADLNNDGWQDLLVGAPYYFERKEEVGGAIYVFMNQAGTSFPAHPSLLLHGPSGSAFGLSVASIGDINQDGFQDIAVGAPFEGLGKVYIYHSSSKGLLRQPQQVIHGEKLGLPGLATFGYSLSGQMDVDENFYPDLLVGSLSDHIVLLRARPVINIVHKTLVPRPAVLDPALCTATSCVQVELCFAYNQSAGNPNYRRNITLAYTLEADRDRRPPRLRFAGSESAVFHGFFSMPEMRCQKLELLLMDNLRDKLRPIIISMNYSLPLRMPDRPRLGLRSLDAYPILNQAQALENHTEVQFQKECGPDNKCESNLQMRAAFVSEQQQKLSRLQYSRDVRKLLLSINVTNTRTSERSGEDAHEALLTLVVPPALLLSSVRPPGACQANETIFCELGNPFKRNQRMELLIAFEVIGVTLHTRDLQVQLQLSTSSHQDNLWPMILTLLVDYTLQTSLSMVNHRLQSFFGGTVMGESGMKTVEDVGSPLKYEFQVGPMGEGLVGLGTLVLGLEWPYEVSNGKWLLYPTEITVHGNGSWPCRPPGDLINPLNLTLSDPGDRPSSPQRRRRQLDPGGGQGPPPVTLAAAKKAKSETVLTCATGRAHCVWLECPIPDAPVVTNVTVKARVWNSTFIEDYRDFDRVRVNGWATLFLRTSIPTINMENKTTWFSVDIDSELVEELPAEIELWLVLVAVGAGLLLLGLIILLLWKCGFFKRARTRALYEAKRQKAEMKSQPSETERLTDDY
Sequence of integrin α3β1 on HOK-16B cells (P05556 21-798, chain 2 of 2): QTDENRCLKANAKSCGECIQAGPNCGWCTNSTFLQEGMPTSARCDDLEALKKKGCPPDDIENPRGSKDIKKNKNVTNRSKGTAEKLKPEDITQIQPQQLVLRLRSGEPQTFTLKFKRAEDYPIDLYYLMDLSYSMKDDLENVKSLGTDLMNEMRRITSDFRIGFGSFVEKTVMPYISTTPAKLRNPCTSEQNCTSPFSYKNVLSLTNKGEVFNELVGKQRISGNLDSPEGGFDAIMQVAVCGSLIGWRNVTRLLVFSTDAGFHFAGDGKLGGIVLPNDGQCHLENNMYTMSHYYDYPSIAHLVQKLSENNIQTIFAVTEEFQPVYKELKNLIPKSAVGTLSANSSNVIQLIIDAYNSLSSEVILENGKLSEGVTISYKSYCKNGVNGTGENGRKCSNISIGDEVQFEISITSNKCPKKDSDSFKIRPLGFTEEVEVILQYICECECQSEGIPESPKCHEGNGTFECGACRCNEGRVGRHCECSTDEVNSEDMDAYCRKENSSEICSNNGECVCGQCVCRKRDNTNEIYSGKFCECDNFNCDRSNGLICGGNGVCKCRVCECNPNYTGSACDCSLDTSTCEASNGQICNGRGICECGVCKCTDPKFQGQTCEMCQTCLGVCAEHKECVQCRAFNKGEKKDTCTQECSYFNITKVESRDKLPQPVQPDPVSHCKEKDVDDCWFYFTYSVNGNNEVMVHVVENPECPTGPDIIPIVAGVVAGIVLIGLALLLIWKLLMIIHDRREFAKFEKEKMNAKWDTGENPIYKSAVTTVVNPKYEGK

Sequence of integrin α3β1 on HOK-16B cells (human (HOK-16B human oral keratinocytes)) (P26006 33-1051, chain 1 of 2): as the sequence (P26006 33-1051, chain 1 of 2) above
Sequence of integrin α3β1 on HOK-16B cells (human (HOK-16B human oral keratinocytes)) (P05556 21-798, chain 2 of 2, further chain): as the sequence (P05556 21-798, chain 2 of 2) above

Row | FAK phosphorylation at Tyr-397 in HOK-16B cells, fold induction compared with the untreated control [1] | FAK phosphorylation at Tyr-397 in HOK-16B cells, fold induction compared with the untreated control [2] | Molecule
1 | 16.2 fold | – | human placental laminin (LN) (ligand)
2 | – | 8.2 fold | recombinant LG3 protein of the human laminin-5 α3 chain (rLG3-His6) (ligand) MRGSHHHHHHGMASMTGGQQMGRDLTDDDDKDPSSRSAAGTMEFDFVRLNDTVGVTKKCSEDWKLVRSASFSRGGQLSFTDLGLPPTDHLQASFGFQTFQPSGILLDHQTWTRNLQVTLEDGYIELSTSDSGGPIFKSPQTYMDGLLHYVSVISDNSGLRLLIDDQLLRNSKRLKHISSSRQSLRLGGSNFEGCISNVFVQRLSLSPEVLDLTSNSLKRDVSLGGCSLNKPPFLMLLKGSTRFNKTKTFRINQLLQDTPVASPRSVKVWQDACSPLPKTQANHESLVNSLLDPAANKARKVAELAAATAEQ
